Data published in US20160046728.

Tested on: Ir-CPI (Ixodes ricinus Contact Phase Inhibitor), recombinant

Substance | activation of factor XII into factor XIIa by kallikrein (reconstituted system, purified factors, chromogenic substrate) | amidolytic activity on chromogenic substrate (protease:Ir-CPI 1:5) | activation of factor XII into factor XIIa by factor XIa (reconstituted system, purified factors, chromogenic substrate)
plasma kallikrein | Ir-CPI did not inhibit the activation of factor XII into factor XIIa by kallikrein | The results obtained did not show any effect of Ir-CPI protein on the amidolytic activity of these factors | –
factor XIa | – | The results obtained did not show any effect of Ir-CPI protein on the amidolytic activity of these factors | Ir-CPI inhibits ... the activation of factor XII into factor XIIa by factor XIa
factor IXa | – | The results obtained did not show any effect of Ir-CPI protein on the amidolytic activity of these factors | –
thrombin | – | The results obtained did not show any effect of Ir-CPI protein on the amidolytic activity of these factors | –
